We go through one molecule from publication PMC9371921, “Strand annealing and motor driven activities of SMARCAL1 and ZRANB3 are stimulated by RAD51 and the paralog complex” (Nucleic Acids Research, 2022).

Numbering of substitutions follows the chain as printed.

For assay [1], the target named is T1, SMARCAL1 F439 F→A variant (human, UniProt Q9NZC9 1-954, F439 (F→A variant)).
T1 construct: human SMARCAL1 with F439 disrupted; the methods call the variants SMARCAL1 F→A variants; construct as m1; The text says only 'disruption of F439'; also called disruption of F439; source: Sf9, purified similarly as the wild type
T1 sequence (looked up): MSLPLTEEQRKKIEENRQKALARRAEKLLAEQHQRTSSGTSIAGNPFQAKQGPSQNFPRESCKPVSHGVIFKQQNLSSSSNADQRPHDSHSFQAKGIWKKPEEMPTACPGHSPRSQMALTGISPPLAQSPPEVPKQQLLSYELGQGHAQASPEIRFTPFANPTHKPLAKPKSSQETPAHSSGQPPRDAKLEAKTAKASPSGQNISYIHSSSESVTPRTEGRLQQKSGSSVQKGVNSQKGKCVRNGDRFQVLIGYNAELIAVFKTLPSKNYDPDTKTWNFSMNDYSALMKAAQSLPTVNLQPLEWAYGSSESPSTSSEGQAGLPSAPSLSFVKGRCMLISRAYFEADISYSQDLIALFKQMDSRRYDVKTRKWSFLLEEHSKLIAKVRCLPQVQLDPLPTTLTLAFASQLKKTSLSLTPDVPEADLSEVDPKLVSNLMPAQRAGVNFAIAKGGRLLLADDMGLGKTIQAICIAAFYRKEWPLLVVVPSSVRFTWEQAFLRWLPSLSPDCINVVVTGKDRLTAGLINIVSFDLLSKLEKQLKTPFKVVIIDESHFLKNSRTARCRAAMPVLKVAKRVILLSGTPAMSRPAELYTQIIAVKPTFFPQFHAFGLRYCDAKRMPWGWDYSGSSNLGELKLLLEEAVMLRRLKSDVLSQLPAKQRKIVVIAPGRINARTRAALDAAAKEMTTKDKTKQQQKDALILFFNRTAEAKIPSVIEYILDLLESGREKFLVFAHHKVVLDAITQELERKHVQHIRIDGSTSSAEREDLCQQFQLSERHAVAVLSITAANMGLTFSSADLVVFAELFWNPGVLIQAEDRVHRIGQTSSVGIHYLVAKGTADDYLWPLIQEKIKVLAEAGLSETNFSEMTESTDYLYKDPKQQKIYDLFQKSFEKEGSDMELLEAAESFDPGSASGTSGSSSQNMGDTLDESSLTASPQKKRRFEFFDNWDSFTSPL
In words: pull-down; MBP-RAD51 (bait) from bacterial soluble extract bound to amylose resin and washed; purified FLAG-SMARCAL1, FLAG-ZRANB3 or FLAG-BCDX2 (1 μg, prey) in 150 μl IP buffer (25 mM Tris-HCl pH 7.5, 100 mM NaCl, 3 mM EDTA, 0.5 mM DTT, BSA, 10% glycerol), 1 h at 4°C; eluted with maltose; Western blot with anti-MBP and anti-FLAG. Conditions: both partners purified.

For a further assay, the target named is T2, FLAG-SMARCAL1 (human, UniProt Q9NZC9 1-954).
T2 construct: also called SMARCAL1-WT; SMARCAL1 wild type
T2 sequence (looked up): T1 sequence (looked up) with A439F
The description is as above. The following applies: both partners purified.

B1: MBP-RAD51 (natural protein, human, UniProt Q06609 1-339, looked up)
chain: MAMQMQLEANADTSVEEESFGPQPISRLEQCGINANDVKKLEEAGFHTVEAVAYAPKKELINIKGISEAKADKILAEAAKLVPMGFTTATEFHQRRSEIIQITTGSKELDKLLQGGIETGSITEMFGEFRTGKTQICHTLAVTCQLPIDRGGGEGKAMYIDTEGTFRPERLLAVAERYGLSGSDVLDNVAYARAFNTDHQTQLLYQASAMMVESRYALLIVDSATALYRTDYSGRGELSARQMHLARFLRMLLRLADEFGVAVVITNQVVAQVDGAAMFAADPKKPIGGNIIAHASTTRLYLRKGRGETRICKIYDSPCLPEAEAMFAINADGVGDAKD
notes: In the pull-downs the MBP tag was kept; the RAD51 of the DNA annealing assays was the same construct with the MBP cut off by PreScission protease and purified on HiTrap Q; not shown: MBP, N-terminal, kept
Take B1: the binding result (in assay [1]; with FLAG-SMARCAL1) was “binds” in each case.
